In patent US8106004B2, “Methods of inhibiting tumor cell aggressiveness using the microenvironment of human embryonic stem cells” (Children's Memorial Hospital, priority 2006, dated 2012):

Assays:
Type in all cases: cell-based, human
Nodal = Nodal expression in C8161 cells (Western blot, real time RT-PCR); settings: C8161 exposed 48 hrs to 0-1000 ng/mL recombinant Lefty
Protocol: A determination of the effects of H9 CMTX on Nodal expression in metastatic melanoma (C8161) and breast carcinoma (MDA-MB-231) cells was undertaken. […] Exposure to H9 CMTX similarly abrogates Nodal mRNA expression in the melanoma and breast carcinoma cells (FIG. 9C).
Protein lysates were prepared and quantified as previously described in Hess et al., 2001, Cancer Res. 61:3250-3255. Equal amounts of protein were separated by SDS-polyacrylamide gel electrophoresis under reducing conditions, and the resolved proteins were transferred onto Immobilon-P membranes (Millipore Corp., Bedford, Mass.). Membranes were blocked in 1% TBS, 0.1% Tween 20 (TBS-T) and 5% dry milk powder or 3% gelatin (for Nodal Westerns). Blots were incubated with anti-Nodal or anti-Lefty antibodies (Polyclonal rabbit anti-Nodal (H-110) 1:500 Santa Cruz Biotechnology, Santa Cruz, Calif.; Polyclonal goat anti-Lefty 1:500 R&D Systems, Minneapolis, Minn.), washed in TBS-T, and incubated with the appropriate horseradish peroxidase-labeled secondary antibody. Secondary antibodies were detected by enhanced chemiluminescence (Super Signal; Pierce, Rockford, Ill.) and exposure to autoradiography film (Molecular Technologies, St Louis, Mo.). Nodal protein was detected as two major bands at ˜48 and ˜35 kDa representing precursor and pro-Nodal respectively. Nodal often appeared as multiple bands, likely due to degradation of protein modifications. All experiments were done at least three times.
The derivation and phenotypic characteristics of the human melanoma cell lines have been previously described. Seftor, et. al., 2002, Clin. Experim. Metastas. 19:233-246; Seftor, et. al., 2005 Cancer Res. 65:10164-10169. The melanoma cell lines are maintained in RPMI 1640 medium (Invitrogen) supplemented with 10% fetal bovine serum (FBS, Gemini Bioproducts) and 0.1% gentamycin sulfate with the exception of C81-61 cells which are maintained in Ham's FIO medium supplemented with 15% FBS, 1X Mito+ (BD Bioscience) and gentamycin sulfate. […] The cultures are determined to be free of mycoplasma contamination using a PCR-based assay (Roche). […]

C81-61 cells = assay: Soft agar colony forming assay, C81-61 cells; settings: C81-61 cell line, rNodal
Protocol: (§1) An in vitro colony forming assay was used to analyze colony-forming ability of poorly aggressive C81-61 cells, aggressive C8161 cells, C8161 cells treated with MO^Nodal and C8161 cells treated with MO^Nodal and rescued with recombinant Nodal (100 ng/mL). The assay was conducted using 50,000 cells suspended in 0.35% agarose in RPMI containing 10% serum, which were plated into 6-well dishes on 0.5% agar in the same medium. Colonies grew, and pictures were taken at day 7. After 2 weeks, colonies were stained with Crystal Violet and counted.

C8161 cells = assay: Soft agar / anchorage independent growth assay, C8161 cells; settings: for rescue of inhibition of in vitro clonogenicity: recombinant Nodal 100 ng/mL
Protocol: as §1
The derivation and phenotypic characteristics of the human melanoma cell lines have been previously described. Seftor, et. al., 2002, Clin. Experim. Metastas. 19:233-246; Seftor, et. al., 2005 Cancer Res. 65:10164-10169. The melanoma cell lines are maintained in RPMI 1640 medium (Invitrogen) supplemented with 10% fetal bovine serum (FBS, Gemini Bioproducts) and 0.1% gentamycin sulfate with the exception of C81-61 cells which are maintained in Ham's FIO medium supplemented with 15% FBS, 1X Mito+ (BD Bioscience) and gentamycin sulfate. Normal human melanocytes are purchased (Cascade Biologics) or isolated from neonatal foreskins. Seftor, et. al., 2005. A single cell suspension is prepared, added to plastic flasks for the adherence of melanocytes and the cells propagated in Medium 254 with Human Melanocyte Growth Supplement (Cascade Biologics) including, 100 units/ml penicillin, 100 μg/ml streptomycin, and 250 ng/mL amphotericin B. The human embryonic stem cell lines are cultured as previously described. Thomson, et. al., 1998, Science 282:1145-1147. Briefly, cells are grown in 6-well plates precoated with 0.1% porcine gelatin and containing 1.9×10^5 irradiated mouse embryonic fibroblasts (strain CF-1; ATCC) per well. The cells are maintained in medium containing DMEM/F12 (1:1), 20% knock-out serum replacement, non-essential minimal amino acids, L-glutamine (Invitrogen), […], and 4 ng/ml FGF-2 (R&D Systems), and are split with collagenase (1 mg/ml) before the colonies begin to overlap. The cultures are determined to be free of mycoplasma contamination using a PCR-based assay (Roche). The normal human neonatal epidermal melanocytes (HEMn-LP; Cascade Biologics, Portland Oreg.), myoepithelial cells (Hs 578 Bst; American Type Culture Collection (ATCC), Manassas, Va.) and primary mammary epithelial cells (HMEpC; Cell Applications Inc., San Diego Calif.) were maintained as per distributor instructions. Live umbilical cord blood stem cells (SC00125; New Jersey Stem Cell Resource at Coriell Institute for Medical Research) amniotic fluid derived stem cells (GM00473, GM00957A) and adult bone marrow derived mesenchymal stem cells (Stem Cell Technologies, Vancouver BC, Canada) were maintained under the recommended conditions. The HTR-8/SVneo is a well characterized immortalized human extravillous cytotrophoblast cell line, and was maintained as previously described Graham et al., 1993, Exp. Cell Res. 206:204-211. […] The expression vector for wild type Nodal was kindly provided by Dr. Daniel Constam (Swiss Institute for Experimental Cancer Research (ISREC), Epalinges, Switzerland) and was transfected into C81-61 cells as previously described. Le Good et al., 2005, Curr. Biol. 15:31-36. […]

MDA-MB-231 cells = assay: Soft agar / anchorage independent growth assay, MDA-MB-231 cells; settings: recombinant Nodal 100 ng/mL
Protocol: The melanoma cell lines are maintained in RPMI 1640 medium (Invitrogen) supplemented with 10% fetal bovine serum (FBS, Gemini Bioproducts) and 0.1% gentamycin sulfate with the exception of C81-61 cells which are maintained in Ham's FIO medium supplemented with 15% FBS, 1X Mito+ (BD Bioscience) and gentamycin sulfate. Normal human melanocytes are purchased (Cascade Biologics) or isolated from neonatal foreskins. […] A single cell suspension is prepared, added to plastic flasks for the adherence of melanocytes and the cells propagated in Medium 254 with Human Melanocyte Growth Supplement (Cascade Biologics) including, 100 units/ml penicillin, 100 μg/ml streptomycin, and 250 ng/mL amphotericin B. The human embryonic stem cell lines are cultured as previously described. […] Briefly, cells are grown in 6-well plates precoated with 0.1% porcine gelatin and containing 1.9×10^5 irradiated mouse embryonic fibroblasts (strain CF-1; ATCC) per well. […] The cultures are determined to be free of mycoplasma contamination using a PCR-based assay (Roche). […] The conditioned matrix is then analyzed by 2-D LDS-PAGE and Western blot directly, or reseeded with melanoma cells and incubated for an additional 3 days. […]

B1: rLeftyB: recombinant Lefty-B (protein, UniProt O00292 77-366, looked up)
Left-right determination …: RFSQSFREVAGRFLASEASTHLLVFGMEQRLPPNSELVQAVLRLFQEPVPKAALHRHGRLSPRSAQARVTVEWLRVRDDGSNRTSLIDSRLVSVHESGWKAFDVTEAVNFWQQLSRPRQPLLLQVSVQREHLGPLASGAHKLVRFASQGAPAGLGEPQLELHTLDLRDYGAQGDCDPEAPMTEGTRCCRQEMYIDLQGMKWAKNWVLEPPGFLAYECVGTCQQPPEALAFNWPFLGPRQCIASETASLPMIVSIKEGGRTRPQVVSLPNMRVQKCSCASDGALVPRRLQP
B1 was tested. Which “Nodal protein expression (Western blot)” value (Nodal) did it give?
Its value is “can inhibit Nodal protein in C8161 cells, but at a higher doses than its hESC counterpart”.

B2: rNodal: recombinant Nodal (R&D Systems), used at 100 ng/mL (protein, UniProt Q96S42 238-347, looked up)
Nodal homolog: HHLPDRSQLCRKVKFQVDFNLIGWGSWIIYPKQYNAYRCEGECPNPVGEEFHPTNHAYIQSLLKRYQPHRVPSTCCAPVKTKPLSMLYVDNGRVLLDHHKDMIVEECGCL
Which results are given for B2?
colony formation (C81-61 cells): did not induce colony formation; rescue of inhibition of in vitro clonogenicity (C8161 cells; C8161 exposed to H9 CMTX): partially rescued; rescue of inhibition of in vitro clonogenicity (C8161 cells; C8161 exposed to H9 Lefty-containing matrix): completely rescued; rescue of reduced colony formation (C8161 cells; C8161 treated with MONodal, rNodal 100 ng/mL): rescued; rescue of inhibition of in vitro clonogenicity (MDA-MB-231 cells; MDA-MB-231 exposed to H9 CMTX): partially rescued; rescue of inhibition of in vitro clonogenicity (MDA-MB-231 cells; MDA-MB-231 exposed to H9 Lefty-containing matrix): completely rescued
